Experimental data from paper PMC11758712.

Experiments:
[1] = target: Abdala (SARS-CoV-2 spike receptor-binding domain vaccine antigen produced in Pichia pastoris) (SARS-CoV-2 (Wuhan-Hu-1)) (UniProt P0DTC2); assay: mass photometry
[2] = target: monomeric ACE2 (a.a 19-611), C-terminally His-tagged (human) (UniProt Q9BYF1); assay: mass photometry
Sequence of monomeric ACE2 (a.a 19-611), C-terminally His-tagged (human) (Q9BYF1 19-611): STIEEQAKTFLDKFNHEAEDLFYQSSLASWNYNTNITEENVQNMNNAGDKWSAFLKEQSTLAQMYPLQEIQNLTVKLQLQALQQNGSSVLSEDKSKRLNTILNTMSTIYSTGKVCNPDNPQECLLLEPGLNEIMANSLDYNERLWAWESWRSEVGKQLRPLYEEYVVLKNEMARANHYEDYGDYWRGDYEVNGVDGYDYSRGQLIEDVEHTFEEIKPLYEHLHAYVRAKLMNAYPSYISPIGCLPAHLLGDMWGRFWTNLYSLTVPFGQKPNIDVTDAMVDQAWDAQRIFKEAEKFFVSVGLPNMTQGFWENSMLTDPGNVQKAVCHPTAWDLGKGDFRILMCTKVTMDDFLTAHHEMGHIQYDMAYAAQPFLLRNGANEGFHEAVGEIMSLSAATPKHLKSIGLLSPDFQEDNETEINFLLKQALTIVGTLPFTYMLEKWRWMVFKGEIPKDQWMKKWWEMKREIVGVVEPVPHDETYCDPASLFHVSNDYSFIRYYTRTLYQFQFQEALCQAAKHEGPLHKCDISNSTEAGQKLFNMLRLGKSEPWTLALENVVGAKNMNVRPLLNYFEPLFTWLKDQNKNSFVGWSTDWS

Abdala (SARS-CoV-2 spike receptor-binding domain vaccine antigen produced in Pichia pastoris) (from UniProt P0DTC2 319-541) (domain or fragment)
percent dimeric species [1]: 5.6% | stoichiometry N [1]: 2 | Kd [2]: 0.0555 µM
